The values that follow come from patent US20240424023A1.

The target of test [1] is CD80-mCherry expressed on DG75 cells (UniProt P33681). The test is described as follows: cell-based or functional assay.
In test [2] the target is CD86-mCherry expressed on DG75 cells (UniProt P42081). Description: cell-based or functional assay.
Chain of UniProt P42081 (P42081 24-329): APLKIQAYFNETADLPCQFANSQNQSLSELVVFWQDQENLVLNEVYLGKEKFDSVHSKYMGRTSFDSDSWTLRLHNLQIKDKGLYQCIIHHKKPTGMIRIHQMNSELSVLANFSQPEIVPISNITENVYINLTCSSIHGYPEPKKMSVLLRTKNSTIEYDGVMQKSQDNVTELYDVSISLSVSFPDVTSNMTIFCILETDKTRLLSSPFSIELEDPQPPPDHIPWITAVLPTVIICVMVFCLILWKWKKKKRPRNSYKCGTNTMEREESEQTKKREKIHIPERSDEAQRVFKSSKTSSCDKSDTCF

Chain of UniProt P33681 (P33681 35-288): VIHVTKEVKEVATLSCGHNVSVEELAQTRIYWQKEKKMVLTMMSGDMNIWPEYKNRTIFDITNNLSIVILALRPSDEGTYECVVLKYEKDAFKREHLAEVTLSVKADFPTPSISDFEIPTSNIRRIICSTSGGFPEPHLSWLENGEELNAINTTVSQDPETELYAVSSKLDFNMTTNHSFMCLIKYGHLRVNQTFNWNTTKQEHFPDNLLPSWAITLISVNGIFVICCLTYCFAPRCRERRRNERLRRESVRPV

With “CTLA4 expressed from a CTLA4-P2A-GFP transgene in human T cells (exon 1 cDNA insertion, intron 1 insertion of exons 2-4 with WPRE donor, or lentiviral vector) (from UniProt P16410 36-223) (receptor)”, the transendocytosis, cells edited with the cDNA exon 1 insertion (fold less than unedited cells) in test [1] and in test [2] was 2 each time.
